# According to PMC8008188:
# Biological target: bone sialoprotein, full length 90 kDa, of UMR106-01 osteoblastic cultures (rat (endogenous in UMR106-01)) (UniProt P13839)
# Assay: co-elution on anion-exchange chromatography; EDTA extract of mineralizing UMR106-01 cultures on POROS 20 HQ in 0.05 M sodium acetate pH 5.2, 8 M urea, 0.1% CHAPS; 0 to 0.6 M NaCl gradient, then 2 M NaCl step; fractions read by dot blot and Western blot with anti-BSP and anti-6b antibodies
# UniProt P13839, sequence (P13839 17-320): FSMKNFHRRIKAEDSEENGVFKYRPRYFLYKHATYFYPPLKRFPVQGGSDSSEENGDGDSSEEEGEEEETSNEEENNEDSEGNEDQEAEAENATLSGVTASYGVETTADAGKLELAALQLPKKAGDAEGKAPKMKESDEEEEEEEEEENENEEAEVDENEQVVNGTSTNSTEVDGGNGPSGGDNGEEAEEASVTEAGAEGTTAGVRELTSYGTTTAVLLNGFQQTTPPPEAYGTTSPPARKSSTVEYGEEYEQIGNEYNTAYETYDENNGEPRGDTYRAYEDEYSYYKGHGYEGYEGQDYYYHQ
substance,measurement,value
60 kDa Col11a1 N-terminal domain (NTD) fragment with the “6b” exon sequence (domain or fragment),percent of the fragment co-eluting with BSP,> 80%
